According to patent US20210230254A1:
Where two headings read alike, the source gives them in different places.

Columns and labels:
2CC-core (HIV-1 YU2) [1] = biological target: 2CC-core (HIV-1 YU2) (UniProt P35961); experiment: SPR, 2CC-core on chip, IgG injected
2CC-core (HIV-1 YU2) [2] = biological target: 2CC-core (HIV-1 YU2) (UniProt P35961)

Chain of 3BNC66 (antibody) (V domain): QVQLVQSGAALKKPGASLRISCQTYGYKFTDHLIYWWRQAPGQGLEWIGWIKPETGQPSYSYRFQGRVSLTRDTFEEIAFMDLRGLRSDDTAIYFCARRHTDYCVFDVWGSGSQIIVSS
Chain of 3BNC66 (antibody) (VL): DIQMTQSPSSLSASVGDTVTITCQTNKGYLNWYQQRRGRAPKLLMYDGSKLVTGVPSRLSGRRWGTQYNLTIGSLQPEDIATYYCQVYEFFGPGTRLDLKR
Chain of 3BNC156 (antibody) (VH): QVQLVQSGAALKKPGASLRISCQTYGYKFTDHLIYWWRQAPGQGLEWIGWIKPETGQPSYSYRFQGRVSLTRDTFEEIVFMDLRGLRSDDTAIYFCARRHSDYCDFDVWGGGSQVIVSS
Chain of 3BNC156 (antibody) (VL): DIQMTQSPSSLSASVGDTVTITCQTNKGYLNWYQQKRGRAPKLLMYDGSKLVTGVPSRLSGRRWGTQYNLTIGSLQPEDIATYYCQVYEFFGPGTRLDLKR
Chain of 12A21 (antibody) (VH): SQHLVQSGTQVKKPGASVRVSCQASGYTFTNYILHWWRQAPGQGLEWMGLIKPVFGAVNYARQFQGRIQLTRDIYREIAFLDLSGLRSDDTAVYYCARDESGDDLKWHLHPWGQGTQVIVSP
Chain of 12A21 (antibody) (VL): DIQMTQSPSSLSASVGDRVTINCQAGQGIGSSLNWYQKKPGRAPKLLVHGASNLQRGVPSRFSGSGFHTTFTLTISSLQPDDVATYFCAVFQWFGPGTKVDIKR
Chain of 3BNC55 (antibody) (V domain): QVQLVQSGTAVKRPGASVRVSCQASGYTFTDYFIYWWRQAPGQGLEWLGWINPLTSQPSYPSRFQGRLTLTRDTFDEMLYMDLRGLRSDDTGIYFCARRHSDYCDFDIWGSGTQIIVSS
Chain of 3BNC55 (antibody) (VL): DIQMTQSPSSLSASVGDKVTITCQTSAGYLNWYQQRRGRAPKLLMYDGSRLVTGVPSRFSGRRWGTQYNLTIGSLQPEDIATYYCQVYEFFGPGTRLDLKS
Chain of 3BNC117 (antibody) (VH): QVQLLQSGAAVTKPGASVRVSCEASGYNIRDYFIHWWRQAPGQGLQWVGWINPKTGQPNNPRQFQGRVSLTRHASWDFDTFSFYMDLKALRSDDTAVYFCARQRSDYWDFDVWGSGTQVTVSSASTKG
Chain of 3BNC117 (antibody) (VL): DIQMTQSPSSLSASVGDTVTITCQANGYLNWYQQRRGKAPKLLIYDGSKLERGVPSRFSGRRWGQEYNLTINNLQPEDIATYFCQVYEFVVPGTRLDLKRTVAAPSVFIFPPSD
Chain of NIH45-46 (antibody) (VH): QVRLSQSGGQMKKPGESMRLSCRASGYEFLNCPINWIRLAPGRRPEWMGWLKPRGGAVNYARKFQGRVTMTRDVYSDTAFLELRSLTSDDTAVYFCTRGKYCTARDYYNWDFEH
Chain of NIH45-46 (antibody) (VL): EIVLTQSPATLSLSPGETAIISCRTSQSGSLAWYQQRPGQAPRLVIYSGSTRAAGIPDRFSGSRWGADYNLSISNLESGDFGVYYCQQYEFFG
Chain of 12A12 (antibody) (VH): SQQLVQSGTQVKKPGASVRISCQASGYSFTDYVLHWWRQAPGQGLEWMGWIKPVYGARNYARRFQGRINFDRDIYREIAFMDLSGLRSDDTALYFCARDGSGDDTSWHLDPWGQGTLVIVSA
Chain of 12A12 (antibody) (VL): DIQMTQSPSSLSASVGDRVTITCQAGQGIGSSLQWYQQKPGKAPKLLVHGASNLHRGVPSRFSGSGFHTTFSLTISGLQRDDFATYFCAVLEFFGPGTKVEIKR
Chain of 3BNC60 (antibody) (VH): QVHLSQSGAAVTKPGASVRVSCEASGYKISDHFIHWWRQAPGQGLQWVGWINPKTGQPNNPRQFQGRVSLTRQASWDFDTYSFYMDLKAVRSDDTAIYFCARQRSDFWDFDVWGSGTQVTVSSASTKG
Chain of 3BNC60 (antibody) (VL): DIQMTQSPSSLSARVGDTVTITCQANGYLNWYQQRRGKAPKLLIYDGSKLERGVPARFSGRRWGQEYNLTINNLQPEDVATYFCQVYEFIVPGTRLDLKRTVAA
Chain of 8ANC195 (antibody) (V domain): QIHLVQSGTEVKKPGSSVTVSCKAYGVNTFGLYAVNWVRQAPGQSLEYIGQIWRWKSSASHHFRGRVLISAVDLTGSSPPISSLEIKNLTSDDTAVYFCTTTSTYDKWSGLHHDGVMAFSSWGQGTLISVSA
Chain of 8ANC195 (antibody) (VL): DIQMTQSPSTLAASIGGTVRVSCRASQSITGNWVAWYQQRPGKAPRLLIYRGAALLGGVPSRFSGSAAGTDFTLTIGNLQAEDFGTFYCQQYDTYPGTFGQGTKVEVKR

Substance	Kd (2CC-core (HIV-1 YU2) [1])	koff (2CC-core (HIV-1 YU2) [1])	kon (2CC-core (HIV-1 YU2) [1])	koff (2CC-core (HIV-1 YU2) [2])	kon (2CC-core (HIV-1 YU2) [2])
1B2530 (antibody)	5.9 nM	0.000402 s⁻¹	68300 M⁻¹ s⁻¹		
1NC9 (antibody)	4.61 nM	0.000236 s⁻¹	51100 M⁻¹ s⁻¹		
3BNC55 (antibody)	25.7 nM			0.000815 s⁻¹	31600 M⁻¹ s⁻¹
3BNC60 (antibody)	54.5 nM	0.00164 s⁻¹	30200 M⁻¹ s⁻¹		
3BNC66 (antibody)	33.6 nM	0.00133 s⁻¹	39600 M⁻¹ s⁻¹		
3BNC117 (antibody)	36.8 nM			0.00149 s⁻¹	40500 M⁻¹ s⁻¹
3BNC156 (antibody)	81.2 nM	0.00153 s⁻¹	18800 M⁻¹ s⁻¹		
8ANC131 (antibody)	66.1 nM	0.00323 s⁻¹	48800 M⁻¹ s⁻¹		
8ANC134 (antibody)	46.1 nM	0.000957 s⁻¹	20800 M⁻¹ s⁻¹		
8ANC195 (antibody)	54.7 nM	0.00132 s⁻¹	24100 M⁻¹ s⁻¹		
12A12 (antibody)	0.0269 nM	1.7e-06 s⁻¹	63300 M⁻¹ s⁻¹		
12A21 (antibody)	1.81 nM	0.00033 s⁻¹	182000 M⁻¹ s⁻¹		
NIH45-46 (antibody)	4.4 nM	0.000494 s⁻¹	112000 M⁻¹ s⁻¹		
